Measurements from IntAct's records for PubMed 19513235.

B1: Mitogen-activated protein kinase kinase 9 (Arabidopsis thaliana (Mouse-ear cress)), Q9FX43 (parent)
chain: MALVRERRQLNLRLPLPPISDRRFSTSSSSATTTTVAGCNGISACDLEKLNVLGCGNGGIVYKVRHKTTSEIYALKTVNGDMDPIFTRQLMREMEILRRTDSPYVVKCHGIFEKPVVGEVSILMEYMDGGTLESLRGGVTEQKLAGFAKQILKGLSYLHALKIVHRDIKPANLLLNSKNEVKIADFGVSKILVRSLDSCNSYVGTCAYMSPERFDSESSGGSSDIYAGDIWSFGLMMLELLVGHFPLLPPGQRPDWATLMCAVCFGEPPRAPEGCSEEFRSFVECCLRKDSSKRWTAPQLLAHPFLREDL
B2: Mitogen-activated protein kinase kinase 1 (Arabidopsis thaliana (Mouse-ear cress)), Q94A06 (parent)
chain: MNRGSLCPNPICLPPLEQSISKFLTQSGTFKDGDLRVNKDGIQTVSLSEPGAPPPIEPLDNQLSLADLEVIKVIGKGSSGNVQLVKHKLTQQFFALKVIQLNTEESTCRAISQELRINLSSQCPYLVSCYQSFYHNGLVSIILEFMDGGSLADLLKKVGKVPENMLSAICKRVLRGLCYIHHERRIIHRDLKPSNLLINHRGEVKITDFGVSKILTSTSSLANSFVGTYPYMSPERISGSLYSNKSDIWSLGLVLLECATGKFPYTPPEHKKGWSSVYELVDAIVENPPPCAPSNLFSPEFCSFISQCVQKDPRDRKSAKELLEHKFVKMFEDSDTNLSAYFTDAGSLIPPLAN
partner: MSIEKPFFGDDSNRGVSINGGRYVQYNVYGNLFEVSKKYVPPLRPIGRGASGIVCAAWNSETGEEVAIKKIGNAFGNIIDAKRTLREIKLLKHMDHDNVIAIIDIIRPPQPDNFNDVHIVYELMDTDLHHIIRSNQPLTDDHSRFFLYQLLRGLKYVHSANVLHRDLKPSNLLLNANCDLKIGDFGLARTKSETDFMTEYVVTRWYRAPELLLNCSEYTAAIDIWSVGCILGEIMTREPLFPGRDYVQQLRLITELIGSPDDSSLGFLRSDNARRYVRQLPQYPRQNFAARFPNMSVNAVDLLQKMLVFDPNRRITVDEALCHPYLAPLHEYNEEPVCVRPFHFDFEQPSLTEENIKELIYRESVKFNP
B3: Mitogen-activated protein kinase kinase 1 (Arabidopsis thaliana (Mouse-ear cress)), Q94A06 (parent)
chain: B2 chain
partner: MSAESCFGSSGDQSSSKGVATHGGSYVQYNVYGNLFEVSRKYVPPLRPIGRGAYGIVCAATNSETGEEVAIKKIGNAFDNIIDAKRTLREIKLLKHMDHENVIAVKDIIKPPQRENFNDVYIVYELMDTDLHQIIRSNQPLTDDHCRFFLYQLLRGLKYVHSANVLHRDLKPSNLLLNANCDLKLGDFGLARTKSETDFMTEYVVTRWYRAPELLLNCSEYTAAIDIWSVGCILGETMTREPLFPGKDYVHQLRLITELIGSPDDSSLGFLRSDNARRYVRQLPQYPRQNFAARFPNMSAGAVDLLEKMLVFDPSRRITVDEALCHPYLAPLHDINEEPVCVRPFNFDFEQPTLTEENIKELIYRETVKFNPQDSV
B4: Mitogen-activated protein kinase kinase 9 (Arabidopsis thaliana (Mouse-ear cress)), Q9FX43 (parent)
chain: B1 chain
partner: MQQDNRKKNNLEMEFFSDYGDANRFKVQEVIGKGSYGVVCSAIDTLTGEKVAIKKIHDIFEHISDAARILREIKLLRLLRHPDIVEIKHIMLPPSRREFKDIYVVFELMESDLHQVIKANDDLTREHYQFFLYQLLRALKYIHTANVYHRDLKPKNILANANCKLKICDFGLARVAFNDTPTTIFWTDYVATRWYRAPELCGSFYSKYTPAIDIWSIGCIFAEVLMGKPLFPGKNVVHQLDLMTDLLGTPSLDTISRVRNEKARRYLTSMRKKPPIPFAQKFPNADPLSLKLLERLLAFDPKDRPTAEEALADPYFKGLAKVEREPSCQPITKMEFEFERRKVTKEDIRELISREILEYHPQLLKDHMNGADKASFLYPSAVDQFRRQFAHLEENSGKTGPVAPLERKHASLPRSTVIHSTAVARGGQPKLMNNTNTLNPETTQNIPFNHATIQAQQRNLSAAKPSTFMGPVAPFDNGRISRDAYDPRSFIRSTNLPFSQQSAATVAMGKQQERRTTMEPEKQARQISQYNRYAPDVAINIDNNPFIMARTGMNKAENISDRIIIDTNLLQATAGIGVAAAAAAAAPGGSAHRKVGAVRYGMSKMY
B5: Mitogen-activated protein kinase kinase 2 (Arabidopsis thaliana (Mouse-ear cress)), Q9S7U9 (parent)
chain: MKKGGFSNNLKLAIPVAGEQSITKFLTQSGTFKDGDLRVNKDGVRIISQLEPEVLSPIKPADDQLSLSDLDMVKVIGKGSSGVVQLVQHKWTGQFFALKVIQLNIDEAIRKAIAQELKINQSSQCPNLVTSYQSFYDNGAISLILEYMDGGSLADFLKSVKAIPDSYLSAIFRQVLQGLIYLHHDRHIIHRDLKPSNLLINHRGEVKITDFGVSTVMTNTAGLANTFVGTYNYMSPERIVGNKYGNKSDIWSLGLVVLECATGKFPYAPPNQEETWTSVFELMEAIVDQPPPALPSGNFSPELSSFISTCLQKDPNSRSSAKELMEHPFLNKYDYSGINLASYFTDAGSPLATLGNLSGTFSV
partner: B2 partner
B6: Mitogen-activated protein kinase kinase 2 (Arabidopsis thaliana (Mouse-ear cress)), Q9S7U9 (parent)
chain: B5 chain
partner: B3 partner
B7: Mitogen-activated protein kinase kinase 2 (Arabidopsis thaliana (Mouse-ear cress)), Q9S7U9 (parent)
chain: B5 chain

Variants of: B1
Conditions: with mpk6_arath MPK6, Q39026
Sequence of mpk6_arath MPK6, Q39026 (Q39026 whole entry): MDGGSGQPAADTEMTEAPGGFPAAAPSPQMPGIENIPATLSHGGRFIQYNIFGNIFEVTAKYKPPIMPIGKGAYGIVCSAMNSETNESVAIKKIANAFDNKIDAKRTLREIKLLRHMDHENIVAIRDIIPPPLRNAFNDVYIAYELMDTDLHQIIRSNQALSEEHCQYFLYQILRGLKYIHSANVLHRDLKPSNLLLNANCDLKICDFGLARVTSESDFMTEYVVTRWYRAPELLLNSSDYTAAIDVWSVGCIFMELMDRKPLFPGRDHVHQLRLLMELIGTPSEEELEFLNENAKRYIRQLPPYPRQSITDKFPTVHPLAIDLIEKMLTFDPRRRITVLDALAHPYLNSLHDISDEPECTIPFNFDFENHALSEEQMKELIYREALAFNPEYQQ

effect of a mutation on the interaction	Variant
increasing interaction	S195E
increasing interaction	S201E

Variants of: B1
Conditions: with mpk10_arath MPK10, Q9M1Z5
Sequence of mpk10_arath MPK10, Q9M1Z5 (Q9M1Z5 whole entry): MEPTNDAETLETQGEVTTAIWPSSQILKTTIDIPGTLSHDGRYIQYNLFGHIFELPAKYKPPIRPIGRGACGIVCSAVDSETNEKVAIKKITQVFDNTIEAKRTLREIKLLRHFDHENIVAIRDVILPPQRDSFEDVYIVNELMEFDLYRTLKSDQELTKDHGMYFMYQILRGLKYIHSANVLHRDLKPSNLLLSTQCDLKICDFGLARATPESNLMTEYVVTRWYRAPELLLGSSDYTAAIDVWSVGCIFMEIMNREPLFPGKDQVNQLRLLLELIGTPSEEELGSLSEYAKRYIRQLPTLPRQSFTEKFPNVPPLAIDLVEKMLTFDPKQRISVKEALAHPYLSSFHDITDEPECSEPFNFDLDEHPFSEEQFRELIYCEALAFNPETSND

effect of a mutation on the interaction	Variant
increasing interaction	S195E
increasing interaction	S201E

Variants of: B2
Conditions: with mpk11_arath MPK11, Q9LMM5

effect of a mutation on the interaction	Variant
increasing interaction	S224D
increasing interaction	T218E

Variants of: B3
Conditions: with mpk4_arath MPK4, Q39024

effect of a mutation on the interaction	Variant
increasing interaction	T218E
increasing interaction	S224D

Variants of: B4
Conditions: with mpk20_arath MPK20, Q9SJG9

effect of a mutation on the interaction	Variant
increasing interaction	S201E
increasing interaction	S195E

Variants of: B5
Conditions: with mpk11_arath MPK11, Q9LMM5

effect of a mutation on the interaction	Variant
increasing interaction	T226E
increasing interaction	T220D

Variants of: B6
Conditions: with mpk4_arath MPK4, Q39024

effect of a mutation on the interaction	Variant
increasing interaction	T220D
increasing interaction	T226E

Variants of: B7
Conditions: with mpk6_arath MPK6, Q39026

effect of a mutation on the interaction	Variant
increasing interaction	T226E
increasing interaction	T220D

Variants of: B7
Conditions: with mpk10_arath MPK10, Q9M1Z5

effect of a mutation on the interaction	Variant
increasing interaction	T226E
increasing interaction	T220D

Variants of: B7
Conditions: with mpk13_arath MPK13, Q9LQQ9
Sequence of mpk13_arath MPK13, Q9LQQ9 (Q9LQQ9 whole entry): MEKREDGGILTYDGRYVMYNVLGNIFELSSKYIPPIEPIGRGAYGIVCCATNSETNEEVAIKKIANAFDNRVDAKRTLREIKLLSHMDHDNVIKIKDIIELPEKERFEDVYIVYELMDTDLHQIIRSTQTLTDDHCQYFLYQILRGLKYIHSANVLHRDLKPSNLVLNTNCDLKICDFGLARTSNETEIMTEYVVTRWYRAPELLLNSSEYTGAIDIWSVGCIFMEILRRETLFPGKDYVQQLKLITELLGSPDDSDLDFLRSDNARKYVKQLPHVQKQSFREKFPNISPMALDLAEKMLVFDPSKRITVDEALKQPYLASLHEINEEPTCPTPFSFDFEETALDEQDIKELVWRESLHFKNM

effect of a mutation on the interaction	Variant
increasing interaction	T226E
increasing interaction	T220D
